Source: patent US10428093B2, “Lipid co-factor essential for cell density signaling” (priority 2013, dated 2019)

System: U2OS cells
Experiment: Growth of U2OS cells after adding concentrated conditioned media or free protein factor
Type: cell-based, human
Conditions: free factor expressed in E. coli added at 5 μg/ml, after a week (6 days), vs control
Procedure: FIGS. 13A-F—The cofactor has a unique lipid makeup depending on the producing cell type but would SNZR 1P1L and SNZR 1P2L give the same or different response if added to the same cell type. In this case we used the control cell line U2OS and added a 5× concentrated condition medium from PAT cells or from U2OS-pESY1c cells. An additional test was done to see if the free factor made in E. coli had any activity on U2OS cells if applied at a high concentration (5 μg/ml).
To answer these questions, U2OS cells were grown in regular media as a control, or with 5× concentrated condition media from U2OS-pESY1c cells expressing the SNZR 1P1L, and from 5× concentrated condition media from PAT cells expressing SNZR 1P2L. In addition, SNZR 1P purified from E. coli, was added at 5 μg/ml—3 orders of magnitude greater than the estimated level in CM (FIG. 13a,b,c,d). […] The high level of the protein factor was chosen because it seemed unlikely that the factor without the cofactor would have a lot of activity and small amounts of activity are difficult to detect by visualization.
U2OS cells were grown in F12/DMEM medium with 0.2% fetal bovine serum. In 75 cm^2 flasks the medium, […], was changed every other day. When the cells first overgrow the monolayer, they are very sensitive to medium volume and will apoptose if too much medium is added.
CM was produced by growing cells in 225 cm^2 flasks. […]

B1: SNZR 1P: secreted 94 AA cell density signal protein factor (chicken, SEQ ID NO:3; tagged form SEQ ID NO:13) (protein, listed as Gallus gallus)
chain: EPLAVVDLRPQSSVKVEVHFQDKVEEMSIRLDQTVAELKKHLKTVVQLSTSNMLLFYLDQEAPFGPEEMKYSSRALHSYGIRDGDKIYVEPRMK
In the case of B1, the “Effect on growth of U2OS cells” value is reported as “did not appear to change the cultures” and the “Effect on growth of U2OS cells” value (listed as secreted form of the factor) is reported as “did not appear to increase growth”.
